Data taken from patent publication US10125184B2, “Apolipoprotein E polypeptides and their use” (priority 2011, dated 2018).
Read-outs that look alike come from different tables or passages of the source.

B1: hEP: human apoE dual-domain peptide: helix 4 of N-terminal domain plus major lipid-binding region; expressed in bacteria (protein)
peptide: EELRVRLASHLRKLRKRLLRDADDLQKRLAVYEEQAQQIRLQAEAFQARLKSWFEPLVEDM

What was measured:
[1] = DMPC binding assay (turbidity OD490nm)
Experimental: FIGS. 3A-3C. Both hEP and mEP mediate plasma cholesterol clearance through hepatic lipoprotein receptors. (A) DMPC binding assay was conducted as described in the examples section. The turbidity of DMPC vesicle solution was monitored by OD490 nm. The curves were representative of two independent experiments. (B) HEK293T cells were loaded with DiI-LDL (5 μg/ml) along with apoE peptide-DMPC particles which competed with DiI-LDL for LDLR binding and LDLR-mediated endocytosis (for 30 min) n=3 for each group. (C) Each peptide (100 μg in 100 μl PBS) was retro-orbitally injected into 6-month-old apoE−/− mice (two mice each group). PBS (100 μl) was injected into two other mice as control. Before (set as 0 min time point) and 5 min, 30 min, 1 h, 2 h, and 4 h after the peptide or PBS injection, 30 μl blood samples were drawn for plasma cholesterol measurement using total Cholesterol Reagent Kit (Raichem, San Diego, Calif.).
1,2-dimyristoyl-sn-glycero-3-phosphatidylcholine (DMPC) (Avanti Polar Lipids Inc., Alabaster, Ala.) was dissolved in chloroform: methanol (3:1, v/v). It was dried thoroughly under a stream of N2. The dried lipid sample was dispersed in pre-warmed buffer (10 mM Tris-HCl, pH7.2; 150 mM NaCl; 0.5 mM EDTA) to final lipid concentration of 10 mg/ml, vortexed for 1 min, and sonicated 10 times at lowest power for 10 seconds at 24° C. The peptide solution, lipid solution and buffer were all maintained at 23.9° C. One milliliter buffer and 250 μg (25 μl lipid solution) were added in a quartz cuvette, and let equilibrate for 10 min, resulting in a turbid DMPC vesicle solution. Peptide solution (250 μg in 100 μl) was then added to turbid solution in the cuvette, the solution was mixed immediately, and the change of turbidity was monitored by OD at 490 nm as a function of time. If the peptide binds to DMPC vesicles, the large DMPC vesicles will be transformed into smaller DMPC-peptide particles, reducing the turbidity of the solution.

JFH-1 HCVcc-Luc = system: JFH-1 HCVcc-Luc
Experimental: FIGS. 1A-1C. […] (A) Schematic illustration of apoE protein domains and the amino acid sequences of hEP and mEP peptides. The amino acid sequences shown are hEP-1 (SEQ ID NO: 6) and mEP (SEQ ID NO: 20). […] Huh7.5.1 cells were infected with JFH-1 HCVcc-Luc (MOI˜0.5) in the presence of hEP or mEP for 2 hours. After removal of virus and peptides, cells were further incubated for 48 hours prior to luciferase assay. Data are presented as % inhibition relative to control infections in which cells were treated with DMSO (0%). Results are expressed as mean±standard deviation (s.d.) (n=3). (C). Huh7.5.1 cells were treated with hEP or DMSO at indicated doses for 48 hours. The effect of hEP on cell viability was measured by a CellTiter Glo assay kit.
FIGS. 7A-7E. Mapping the anti-viral activity of hEP. In (A) and (B), HCVcc-luc was first mixed with indicated peptides (20 μg/ml, 2.7 μM) and then incubated with Huh7.5.1 cells for two hours at 37° C. to initiate infection. After additional 48 hours incubation, luciferase activity was measured. Results are presented as fold of inhibition relative to infections containing DMSO (n=5, mean±sd). (C) 20 μg of hEP-2 or hEP-2/ΔCys were resuspended in PBS and kept at room temperature for 30 minutes. Peptides were then mixed with 2×SDS-sample buffer without DTT and boiled for 5 minutes. Alternatively, samples were simply left unboiled or mixed with sample buffer containing DTT (2 mM). Peptide samples were then subjected to electrophoresis on a 16% tricine non-reducing gel (Invitrogen). […] (D) and (E) Mass spectrometric analysis of hEP-2 or hEP-2/ΔCys.
Detailed procedures involving the production and use of HCVpp and HCVcc have been published elsewhere (Liu et al., J Virol 2009; 83:2011-2014; Yang et al., Hepatology 2008; 48:1396-1403; Yang et al., J Biol Chem 2008; 283:8643-8653). Production procedure of HCVcc expressing firefly luciferase that was inserted between NS5A and NS5B (JFH-1 strain) was described elsewhere (Liu et al., Virology 2010; 407:160-170). Unless otherwise indicated, viruses were typically added to cells for two hours before removal. Cells were incubated for additional 48 hours followed by luciferase assay. When purification was needed, HCVcc were subjected to ultracentrifugation (SW41, 28,000×g) for 4 hours through a 20% sucrose cushion. Deidentified human sera, collected from five patients containing high-titer HCV (HCVser), were obtained.

HCVpp = HCVpp infection of Huh7.5.1 cells; assay type: cell-based, Hepatitis C virus (H77, JFH1, J6 envelope)
LDLR = test: Surface LDLR level on Huh7.5.1 cells by flow cytometry; assay type: cell-based; conditions: various time periods
Experimental: FIGS. 4A-4C. (A) Huh7.5.1 cells seeded in a 12-well plate were treated with hEP-2 (20 μg/ml) for indicated time periods. Cells were stained with a mouse IgG (istotype control) or the anti-LDLR antibody followed by flow cytometric analysis. An overlay of 7 histograms is presented and the Δ median fluorescence intensity (ΔMFI, LDLR stain minus isotype control stain) of each sample is indicated to the upper right of the figure. (B) Cells were stained with anti-CD81 antibody and analyzed similarly as in A. (C) Immunonblots of SR-BI, CLDN1, and OCLN in the presence of hEP-2 or scrambled peptide.

| Molecule | DMPC binding ([1]; reduction (percentage) of turbidity (OD490nm) of DMPC solution, plateau 10 minutes after addition of peptide) | IC50 (JFH-1 HCVcc-Luc; HCVcc infection of Huh7.5.1 cells) [nM] | Effect on infectivity of HCVpp (HCVpp) | Change of surface LDLR (LDLR) | Binding to DMPC (in words) ([1]; DMPC vesicles, turbidity) | Effect on infectivity of HIV-1 (HIV-1) | IC50 (JFH-1 HCVcc-Luc; read-out: 50% inhibitory concentration (IC50) of HCVcc infection, JFH-1 HCVcc-Luc MOI~0.5, peptide present 2 hours, luciferase after 48 hours) [nM] | Suppression of HCVcc infection at various MOIs (JFH-1 HCVcc-Luc; various MOIs) |
| --- | --- | --- | --- | --- | --- | --- | --- | --- |
| EELRVRLASHLRKLRKRLLRDADDLQKRLAVYEEQAQQIRLQAEAFQARLKSWFEPLVEDM [hEP-1] | + (+, reduction 25-50%) | 670 | – | – | – | – | – | – |
| B1 | – | – | did not affect the infectivity | did not cause detectable change | efficiently bound | did not affect the infectivity | 670 | robustly suppressed |
